Data: US20130143793A1 (ZEALAND PHARMA A S, published 2013)
Bridge positions count the residues as written; N and C are the ends. Square brackets hold non-standard residues; d marks the D form. Ends that are not written are not given here. Orn = NCCC[C@H](N)C(=O)O

T1: human CCK-B receptor (human, UniProt P32239 1-447)
T1 sequence (looked up): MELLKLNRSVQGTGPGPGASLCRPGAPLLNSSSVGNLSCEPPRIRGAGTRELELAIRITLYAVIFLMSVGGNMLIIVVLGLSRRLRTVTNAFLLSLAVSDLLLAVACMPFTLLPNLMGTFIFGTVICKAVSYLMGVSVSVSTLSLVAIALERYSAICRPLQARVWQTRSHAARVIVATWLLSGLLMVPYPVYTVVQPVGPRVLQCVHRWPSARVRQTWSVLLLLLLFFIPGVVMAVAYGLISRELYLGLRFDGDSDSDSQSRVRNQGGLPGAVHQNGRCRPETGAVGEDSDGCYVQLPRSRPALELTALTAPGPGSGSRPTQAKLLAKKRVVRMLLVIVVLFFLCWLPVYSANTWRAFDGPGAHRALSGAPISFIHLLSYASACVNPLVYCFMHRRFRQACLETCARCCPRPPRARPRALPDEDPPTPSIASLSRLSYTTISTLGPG

B1: [Glu9,Leu14,Phe25,Tyr13]Exendin-4(1-27)-Orn-Orn-[Leu2]Gastrin4 (peptide)
peptide: HGEGTFTSELSKYLEEEAVRLFIEFLK[Orn][Orn]WLDF-NH2
modifications: N-terminus assumed
SMILES: CC[C@H](C)[C@H](NC(=O)[C@H](Cc1ccccc1)NC(=O)[C@H](CC(C)C)NC(=O)[C@H](CCCNC(=N)N)NC(=O)[C@@H](NC(=O)[C@H](C)NC(=O)[C@H](CCC(=O)O)NC(=O)[C@H](CCC(=O)O)NC(=O)[C@H](CCC(=O)O)NC(=O)[C@H](CC(C)C)NC(=O)[C@H](Cc1ccc(O)cc1)NC(=O)[C@H](CCCCN)NC(=O)[C@H](CO)NC(=O)[C@H](CC(C)C)NC(=O)[C@H](CCC(=O)O)NC(=O)[C@H](CO)NC(=O)[C@@H](NC(=O)[C@H](Cc1ccccc1)NC(=O)[C@@H](NC(=O)CNC(=O)[C@H](CCC(=O)O)NC(=O)CNC(=O)[C@@H](N)Cc1c[nH]cn1)[C@@H](C)O)[C@@H](C)O)C(C)C)C(=O)N[C@@H](CCC(=O)O)C(=O)N[C@@H](Cc1ccccc1)C(=O)N[C@@H](CC(C)C)C(=O)N[C@@H](CCCCN)C(=O)N[C@@H](CCCN)C(=O)N[C@@H](CCCN)C(=O)N[C@@H](Cc1c[nH]c2ccccc12)C(=O)N[C@@H](CC(C)C)C(=O)N[C@@H](CC(=O)O)C(=O)N[C@@H](Cc1ccccc1)C(N)=O
B2: [Glu9,Leu14,Phe25,Tyr13]Exendin-4(1-27)-Orn-Orn-[Leu4]Gastrin6 (peptide)
peptide: HGEGTFTSELSKYLEEEAVRLFIEFLK[Orn][Orn]YGWLDF-NH2
modifications: N-terminus assumed
SMILES: CC[C@H](C)[C@H](NC(=O)[C@H](Cc1ccccc1)NC(=O)[C@H](CC(C)C)NC(=O)[C@H](CCCNC(=N)N)NC(=O)[C@@H](NC(=O)[C@H](C)NC(=O)[C@H](CCC(=O)O)NC(=O)[C@H](CCC(=O)O)NC(=O)[C@H](CCC(=O)O)NC(=O)[C@H](CC(C)C)NC(=O)[C@H](Cc1ccc(O)cc1)NC(=O)[C@H](CCCCN)NC(=O)[C@H](CO)NC(=O)[C@H](CC(C)C)NC(=O)[C@H](CCC(=O)O)NC(=O)[C@H](CO)NC(=O)[C@@H](NC(=O)[C@H](Cc1ccccc1)NC(=O)[C@@H](NC(=O)CNC(=O)[C@H](CCC(=O)O)NC(=O)CNC(=O)[C@@H](N)Cc1c[nH]cn1)[C@@H](C)O)[C@@H](C)O)C(C)C)C(=O)N[C@@H](CCC(=O)O)C(=O)N[C@@H](Cc1ccccc1)C(=O)N[C@@H](CC(C)C)C(=O)N[C@@H](CCCCN)C(=O)N[C@@H](CCCN)C(=O)N[C@@H](CCCN)C(=O)N[C@@H](Cc1ccc(O)cc1)C(=O)NCC(=O)N[C@@H](Cc1c[nH]c2ccccc12)C(=O)N[C@@H](CC(C)C)C(=O)N[C@@H](CC(=O)O)C(=O)N[C@@H](Cc1ccccc1)C(N)=O

What was measured:
human GLP-1 receptor = human GLP-1 receptor (human, UniProt P43220 24-463); test: cell-based or functional assay
human CCK-B receptor = target: T1, human CCK-B receptor; test: cell-based or functional assay

Binder | hGLP-1 R EC50 (cAMP) (human GLP-1 receptor) | hCCK-B R EC50 (p-ERK) (human CCK-B receptor)
HGEGTFTSDLSKQMEEEAVRLFIEWLKEEEEAYGWLDF (C-terminal amide) [Exendin-4(1-27)-[Leu4]Gastrin11] | 0.1 nM | 4.3 nM
B1 | 0.11 nM | 860 nM
HGEGTFTSELSKYLEEEAVRLFIEFLKWLDF-NH2 [[Glu9,Leu14,Phe25,Tyr13]Exendin-4(1-27)-[Leu2]Gastrin4] | 1.2 nM | 211 nM
HGEGTFTSELSKYLEEEAVRLFIEFLK[Orn][Peg3]YGWLDF-NH2 [[Glu9,Leu14,Phe25,Tyr13]Exendin-4(1-27)-Orn-Peg3-[Leu4]Gastrin6] | 0.12 nM | 100 nM
HGEGTFTSELSKYLEEEAVRLFIEFLK[Peg3]YGWLDF-NH2 [[Glu9,Leu14,Phe25,Tyr13]Exendin-4(1-27)-Peg3-[Leu4]Gastrin6] |  | 54 nM
HGEGTFTSELSKYLEEEAVRLFIEFLK[Orn][Peg3]WLDF-NH2 [[Glu9,Leu14,Phe25,Tyr13]Exendin-4(1-27)-Orn-Peg3-[Leu2]Gastrin4] | 0.046 nM | 10 nM
HGEGTFTSELSKYLEEEAVRLFIEFLK[Peg3][Peg3]YGWLDF-NH2 [[Glu9,Leu14,Phe25,Tyr13]Exendin-4(1-27)-Peg3-Peg3-[Leu4]Gastrin6] | 0.046 nM | 20 nM
HGEGTFTSDLSKQMEEEAVRLFIEWLKNYGWTDF (C-terminal amide) [Exendin-4(1-28)-[Thr4]Gastrin6] | 0.044 nM | 58 nM
HGEGTFTSDLSKQLEEEAVRLFIEWLKNYGXLDF (1Nal (1-naphthylalanine) at position 3 of the Gastrin6 moiety; C-terminal amide) [[Leu14]Exendin-4(1-28)-[1Nal3,Leu4]Gastrin6] | 0.04 nM | 270 nM
HGEGTFTSDLSKQLEEEAVRLFIEWLKNYGWLDX (3-(3-Pyridyl)-alanine at position 6 of the Gastrin6 moiety; C-terminal amide) [[Leu14]Exendin-4(1-28)-[Leu4,[3-(3-Pyridyl)-Ala]6]Gastrin6] |  | 20 nM
HGEGTFTSDLSKQLEEEAVRLFIEWLKNYGWXDF (Nle at position 4 of the Gastrin6 moiety; C-terminal amide) [[Leu14]Exendin-4(1-28)-[Nle4]Gastrin6] | 0.052 nM | 24 nM
HGEGTFTSDLSKQMEEEAVRLFIEWLKNYGWFDF (C-terminal amide) [Exendin-4(1-28)-[Phe4]Gastrin6] | 0.044 nM | 140 nM
HGEGTFTSDLSKQMEEEAVRLFIEWLKNYGWLDF (C-terminal amide) [Exendin-4(1-28)-[Leu4]Gastrin6] | 0.061 nM | 14 nM
HGEGTFTSDLSRYLEEEAVRLFIKFLR[Peg3]YGWLDF-NH2 [[Arg12,27,Leu14,Lys24,Phe25,Tyr13]Exendin-4(1-27)-Peg3-[Leu4]Gastrin6] | 0.13 nM | 36 nM
HGEGTFTSELSKYLEEEAVRLFIEFLK[Peg3][Peg3]YGFLDF-NH2 [[Glu9,Leu14,Phe25,Tyr13]Exendin-4(1-27)-Peg3-Peg3-[Leu4,Phe3]Gastrin6] | 0.032 nM | 1300 nM
HGEGTFTSELSKYLEEEAVRLFIEFLKYGWLDF-NH2 [[Glu9,Leu14,Phe25,Tyr13]Exendin-4(1-27)-[Leu4]Gastrin6] | 0.11 nM | 30 nM

Binder | hGLP-1 R EC50 (cAMP) (human GLP-1 receptor) | hCCK-B R EC50 (p-ERK) (human CCK-B receptor)
HGEGTFTSDLSKYLEEEAVRLFIEFLR[Peg3]YGWLDF-NH2 [[Arg27,Leu14,Phe25,Tyr13]Exendin-4(1-27)-Peg3-[Leu4]Gastrin6] | 0.068 nM | 18 nM
HGEGTFTSELSKYLEEEAVRLFIEFLK[Peg3][Orn]YGWLDF-NH2 [[Glu9,Leu14,Phe25,Tyr13]Exendin-4(1-27)-Peg3-Orn-[Leu4]Gastrin6] | 0.087 nM | 8.8 nM
HGEGTFTSDLSKQMEEEAVKLFIEWLKN[Peg3][Peg3]YGWLDF-NH2 (lactam 16-20) [Side chain-cyclo([Glu16,Lys20]Exendin-4(1-28)-Peg3-Peg3-[Leu4]Gastrin6] | 0.026 nM | 
HGEGTFTSDLSRYLEEEAVRLFIEFLK[Peg3]YGWLDF-NH2 [[Arg12,Leu14,Phe25,Tyr13]Exendin-4(1-27)-Peg3-[Leu4]Gastrin6] | 0.079 nM | 14 nM
HGEGTFTSDLSKYLEEEAVRLFIEWLK[Peg3][Peg3]YGWLDF-NH2 [[Tyr13,Leu14]Exendin-4(1-27)-Peg3-Peg3-[Leu4]Gastrin6] | 0.05 nM | 8.4 nM
HGEGTFTSDLSKYMEEEAVRLFIEWLKN[Peg3][Peg3]YGWLDF-NH2 [[Tyr13]Exendin-4(1-28)-Peg3-Peg3-[Leu4]Gastrin6] | 0.046 nM | 12 nM
B2 | 0.11 nM | 16 nM
HGEGTFTSDLSKQMEEEAV[Orn]LFIEWLKN[Peg3][Peg3]YGWLDF-NH2 [[Orn20]Exendin-4(1-28)-Peg3-Peg3-[Leu4]Gastrin6] | 0.038 nM | 15 nM
HGEGTFTSDLSRYLEKEAVRLFIEFLR[Peg3]YGWLDF-NH2 [[Arg12,27,Leu14,Lys16,Phe25,Tyr13]Exendin-4(1-27)-Peg3-[Leu4]Gastrin6] | 0.17 nM | 26 nM
HGEGTFTSELSKYLEEEAVRLFIEFLK[Peg3]WLDF-NH2 [[Glu9,Leu14,Phe25,Tyr13]Exendin-4(1-27)-Peg3-[Leu2]Gastrin4] | 0.06 nM | 13 nM
HGEGTFTSDLSKQMEEEAVRLFIEWLKDXXYGWLDF (Peg3-Peg3 linker; C-terminal amide) [[Asp28]Exendin-4(1-28)-Peg3-Peg3-[Leu4]Gastrin6] | 0.061 nM | 3.3 nM
HGEGTFTSELSKYLEEEAVRLFIEFLK[Peg3][Orn]WLDF-NH2 [[Glu9,Leu14,Phe25,Tyr13]Exendin-4(1-27)-Peg3-Orn-[Leu2]Gastrin4] | 0.041 nM | 51 nM
HGEGTFTSDLSKYLEEEAVRLFIEFLK[Peg3][Peg3]YGFLDF-NH2 [[Leu14,Phe25,Tyr13]Exendin-4(1-27)-Peg3-Peg3-[Leu4,Phe3]Gastrin6] |  | 1200 nM
HGEGTFTSDLSKYLEEEAVRLFIEFLK[Peg3][Peg3]YGWLDF-NH2 [[Tyr13,Leu14,Phe25]Exendin-4(1-27)-Peg3-Peg3-[Leu4]Gastrin6] | 0.044 nM | 
HGEGTFTSDLSRYLEEEAVKLFIEFLR[Peg3]YGWLDF-NH2 [[Arg12,27,Leu14,Lys20,Phe25,Tyr13]Exendin-4(1-27)-Peg3-[Leu4]Gastrin6] | 0.058 nM | 26 nM
